This series in a line: label from the status in PepcDB records.
“MACFSSLSTGVLDMYDLIIVGGGPSGASAGRVAGKAGISTLLIEKENFPRYKPCGGALSPYALSCLDFKLPEYLIEKDISRIRVHFRELCTEMQKDYSIALLVSRKAFDNFLLDKARETGIDIHSGEKVLDCEEGEECVEVRTSQNTYLAKFVLIAEGSEGVLKYSVRKRKDRRTEYDLALVSEIPERDKVIRKRFPNAIDMHFGIASGGYGWIFPHSEHYSVGIVGTAEHLKHPKAVMQDFLQANGFSGDFQVHSHIIPVGGIKRKTISSRILLSGDAAGFVDAFIGEGISYAIRSGQLAAENVAEIVLYNRKLSDLKEYETSCRKEFGNFLSSSLKLEKAMHRFPETSFRLALSRKEIIDKYLEEVVINRSHKDYVRWLLLNFSLSEPASKIKSIKDKNQLEHHHHHH”: the protein production entry is on record as “failed”. Consider “MACHGFLGKPTPKSFGRHHKHARKNRNHQSRCLAAAVAAAGSIFTSLNMSIFTFHNRLLRCVSRFLRLATTSSATPTRRPTMKQGYKKLHKREPLIRRNDKKRTIFLDLDETLVHSTMEPPIRVNVDFMVRIKIEGAVIPMFVVKRPGVTEFLERISKNYRVAIFTAGLPEYASQVLDKLDKNRVISQRLYRDSCTEVNGRYAKDLSLVAKNDLGSVLLVDDNPFSYSLQPDNGVPIKPFMDDMEDQELMKLAEFFDGCYQYEDLRDAAAELLSSKLI”, for which the protein production result is “failed”. Then “MADAPDTERQAVEPEAGDVLSVSQLNDRIASVVEDAPALDGVRCIGEVTDLHQNSTALYFTLTDGDAELPCMIWANRYRKMDAELEDGTEVILEGDIDYWTEGGKIDLKPWEVIVVGDGDQAAAVERLRSELEERGWFDDEQKQRPPAFPERVGVVTSLRGDARYDIQSAIHEQDPTVDILVKDATVQGSEAPTSIANGIHHLDRSEDVDSIIVGRGGGSDSNLQAFNTERVAEAIFTANTPIVTAIGHTDDRLIADRVADMAAITPTAAGEYIAKSRNDFLASDIGPLEQQLEAAYETFEQEHEHEQELAEAVEEATAPEGLSPVYYKVAIVVLLVLLLLITALWLGVI”, with “failed”. Turning to “MADAPIDIFQSILSRKSIRAFTDQPVTQETIREILKLAARAPSGTNLQPWQVIVLTGKILQKVGQELSQLVLSGIKGEREYHYYPRQWREPYLSRRRKVGLDLYKSLGIQKGDQEKMLHQKAKNFLFYGAPVGLLFTIDHDMEMGSWLDLGMFMQTIMLAARGFGLDTCAQAAFADYHKQIRSLLSVPSDRHIICGMALGYRDMNAPENNFETEREPIDNFVHFIKSYP”, the protein production result was “not failed”. In the case of “MADISLDELIRKRGAAAKGRLNARPGVGGVRSRVGIQQGLLSQSTRTATFQQRFDARQKIGLSDARLKLGVKDAREKLLQKDARFRIKGKVQDAREMLNSRKQQTTVPQKPRQVADAREKISLKRSSPAAFINPPIGTVTPALKLTKTIQNLYDLDEDDDGIASVPTKQMKFAASGGFLHHMAGLSSSKLSMSKALPLTKVVQNDAYTAPALPSSIRTKALPVLTSPGT”, the protein production entry is “not failed”. As to “MADLPSISLITATYNAAQHLPGLIESVRQQSDRAFEWIVIDGASEDGTLDLIRGAQDVITDYVSEPDFGIFHALNKGIQRATGDYYLVVGADDRLDPLAIANYKQAAASSQADLISAYIYSEKKAIIKPTGGAIWHHGVQAFITTQSVGTLIKRNLHEHYGYYSHYYPTAADALFILKVQQGGGKITTAEFIAGQYNTKGFSYRYKANLLCELFLIQKEFFPKSIQLLLLIYRLIKNYRYLLEHHHHHH”, the protein production entry is “failed”. As to “MADMSDAPLVVQSDRTILLEVDNPLYPEARDALARFAELVKSPEHIHTYRLTPLSLWNAAAGGLDAATIIQVLADYSKYPLPANVVADIREYVGRYGKVKLVARGTGLRLVTADPGIAAEISNNKRIQPYIKERQDACTLAIDPWQRGPVKQALIKIGYPVEDLAGYIPGAPLPFSLRERTLNGETFSLRPYQAEAARVFYAGGSSRGGSGVIVLPCGAGKTVVGIAAMALCQCYTLILVTSVTAARQWLAEIRDKTDLPPEMLGEYTGEKKEIKPVTVATYQIITHRRRRNEDYPNFQLFNQQDWGLIIYDEVHLLPAPIFRITAELQARRRLGLTATLIREDGHEDDVFSLIGPKKYDLPWKQLEAQGWIAKATCYEVRLNLPPEMRLDYASAGERDKYRIAATNPVKEAVVENIIKRHEGEQVLVIGQYLEQLERLARRLGVPMITGQTSNRERERLYQAFREGTLKCLVVSKVANFAIDLPEASVAVQVSGAFGSRQEEAQRLGRILRPKKGGLPASFYTLVTRETVEQEFAVHRQLFLTEQGYRYVIIGPDLEQEGDKVYPLKTPTGSEPAVGAVIKQENLDGKVIDLMAWRQKAGR”, the protein production entry is recorded as “failed”. As to “MADNYVIWFENLRMTDVERVGGKNASLGEMISQLTEKGVRVPGGFATTAEAYRAFLAHNGLSERISAALAKLDVEDVAELARVGKEIRQWILDTPFPEQLDAEIEAAWNKMVADAGGADISVAVRSSATAEDLPDASFAGQQETFLNINGLDNVKEAMHHVFASLYNDRAISYRVHKGFEHDIVALSAGVQRMVRSDSGASGVMFTLDTESGYDQVVFVTSSYGLGENVVQGAVNPDEFYVFKPTLKAGKPAILRKTMGSKHIKMIFTDKAEAGKSVTNVDVPEEDRNRFSITDEEITELAHYALTIEKHYGRPMDIEWGRDGLDGKLYILQARPETVKSQEEGNRNLRRFAINGDKTVLCEGRAIGQKVGQGKVRLIKDASEMDSVEAGDVLVTDMTDPDWEPV”, the protein production result is reported as “not failed”. As to “MADQPESPSRPRGGLRRLLPWSGADTARTATTVHTVINGERGGQGLAAHQLVPAKAKSGAHDPAAATALLIRLFSHAAHPEALLLAFAEGITSLHGELGDMGVRLSAAYAAGDWPGYGRALRQLIDKYIRTIDIGDSLAEGRTEAEQLRDLLRHALGNALATLLQRSPELAEEAQTLASALRHWRPGHELLTLEQRLRELSHQIGLRAEDASEQQNLLLGLFDLLLENVGELLDDRSWLQGQISVVRQLISGPLDVSSIEQARGTLREVIYKQGLLKQGIAESKTAMREMMVSFVDRLDGMATSTGEYHDRVAGYSQAIGEARGIPDLNRLLQDLLQDTAGVQAQALAARDELLSARRQVEDCEQRIASLEQELKDVAGLVREDQLTGALNRRGFEELFQREAVRTQRSGQPLCVAMLDLDDFRRLNETHGHAGGDAALRHTVDVAKAVLRTTDAIARFGGEEFVLLLPDSTIFEASAAVIRLQRALSQRSLLHDDVRVFISFSAGVALRGTDETQDDVIRRADRAMYDAKSAGKNRVINAD”, the protein production entry is given as “failed”.

Regarding “MADSESKIYHERQRLQFCLLHCLNNLFQDKDAFTKESLNSIAEKLETNDPNKETWTPLSFVLKPHHNTITGNYDVNVMITALEGKGKSVVWHDKRIGASSIDLDDADTLMGIVLNVPVKRYGGLWRSRHWVVVRKINGVWYNLDSDLVVPQLFRDDDEVRGFLDQNLSLDVIGLIWNLPYNANQLPLASNYRVVITHWSDLNGMFSHVTNYPLDFDVYPQVSSKVSAIYKATGTKRFNANTRPVTPGKQSSVKGPYYKNPGCTTSCGLRLPRKTECTAARLIKDLSCKFVMGLRLVVMRKKKKKRSPPLKKASSSGISQPSVISVVNDNNHRSAAIEDCIQFINSSSSFTRSNSTCGSKS”, the protein production result is reported as “failed”. Consider “MAEAHVTKVGIVGIGFIGSDHLHRLTKTVANVDVTAVCDIVPGKAQKALDQQGLTATTYEDYHDLVNDPNVEVVVCTANNEAHYEIVMAALKAGKFTFCEKPLALDAKQCMDIIDSEKKLGRRMLQVGFMRHYAPEYVQMKKMIDDGVIGKPLMMDQRHYNQTQPEEYDSSRSIIETAIHEIDIDHWLVNDDYANIRVFSPKQTRHVQNAKIQDPQIVMIETKSGINIINEVFVRCQYGYDIKCDVIGEEGVLELPTVPQVATRLNAQYSTAILTDWKARFESAYDIEFRDFINHVSQNESPVGPSAWDGYIAAVTADAALKSLAEDGAKQDLDFPSTPAFYTESEKVSE”, for which the protein production result is given as “failed”. Then “MAEANTPHIAIMPSPGMGHLIPFVELAKRLVQHDCFTVTMIISGETSPSKAQRSVLNSLPSSIASVFLPPADLSDVPSTARIETRAMLTMTRSNPALRELFGSLSTKKSLPAVLVVDMFGADAFDVAVDFHVSPYIFYASNANVLSFFLHLPKLDKTVSCEFRYLTEPLKIPGCVPITGKDFLDTVQDRNDDAYKLLLHNTKRYKEAKGILVNSFVDLESNAIKALQEPAPDKPTVYPIGPLVNTSSSNVNLEDKFGCLSWLDNQPFGSVLYISFGSGGTLTCEQFNELAIGLAESGKRFIWVIRSPSEIVSSSYFNPHSETDPFSFLPIGFLDRTKEKGLVVPSWAPQVQILAHPSTCGFLTHCGWNSTLESIVNGVPLIAWPLFAEQKMNTLLLVEDVGAALRIHAGEDGIVRREEVVRVVKALMEGEEGKAIGNKVKELKEGVVRVLGDDGLSSKSFGEVLLKWKTHQRDINQETSH”, with “failed”.
